In patent publication US20170298109A1 (SAPPORO MEDICAL UNIVERSITY, published 2017):

The binders below were run against T1, HLA-A*02:01 with β2-microglobulin (human) (assay: folding test: HLA-monomer formation, gel filtration).
T1 construct: Soluble recombinant HLA used in the folding test and in tetramer reagents; also called HLA-A2
ILQKHGENV (synthetic 9-mer) [ILQ peptide]: binds.
ALEENVMVA (synthetic 9-mer) [ALE peptide]: binds.
YASRDTYKL (synthetic 9-mer) [YAS peptide]: binds.
HALEENVMV (synthetic 9-mer) [HAL peptide]: binds.
VLTVSNSNV (synthetic 9-mer) [VLT peptide]: binds.
VLEEEVELV (synthetic 9-mer) [VLE peptide]: binds.
KLAVSLAET (synthetic 9-mer) [KLA peptide]: binds.
SVLEEEVEL (synthetic 9-mer) [SVLE peptide]: binds.
SLAETAGLI (synthetic 9-mer) [SLAE peptide]: binds.
VLSEQFTKI (synthetic 9-mer) [VLS peptide]: binds.

These binders were tested against T2, HLA-A*11:01 with β2-microglobulin (human) (assay: folding test: HLA-monomer formation after 1, 3 and 7 days, gel filtration).
T2 construct: Soluble recombinant HLA used in the folding test and in tetramer reagents
SVLSEQFTK (synthetic 9-mer) [SVL peptide]: binds.
RMSSFNRHMK (synthetic 10-mer) [RMS peptide]: binds.
NTHTGTRPYK (synthetic 10-mer) [NTH peptide]: binds.
CSYASRDTYK (synthetic 10-mer) [CSY peptide]: binds.
GTMKIHILQK (synthetic 10-mer) [GTM peptide]: binds.
KQLLNAHFRK (synthetic 10-mer) [KQL peptide]: binds.
TVYKCSKCGK (synthetic 10-mer) [TVY peptide]: binds.
ASGKGRRTRK (synthetic 10-mer) [ASG peptide]: binds.
AAAEEASTTK (synthetic 10-mer) [AAA peptide]: binds.
GLIPTVLTLK (synthetic 10-mer) [GLI peptide]: binds.
TVLTLKASFK (synthetic 10-mer) [TVL peptide]: binds.
KLLFIGTIK (synthetic 9-mer) [KLLF peptide]: binds.

The binders below were run against T1, HLA-A*02:01 with β2-microglobulin (assay: folding test: HLA-monomer formation from HLA, β2-microglobulin and peptide, gel filtration).
MAATEISVL (synthetic 9-mer) [MAA peptide]: no binding (tested: 30 µM peptide).

What follows are binders tested against HLA-A*24:02 with β2-microglobulin (human) (assay: HLA tetramer reagent made of the RMM peptide and the HLA type, staining of induced CTLs, flow cytometry).
RMMLVSAWL (synthetic 9-mer) [RMM peptide]: binds.

The binders below were run against T1, HLA-A*02:01 with β2-microglobulin in the same assay as above.
RMMLVSAWL (synthetic 9-mer) [RMM peptide]: binds.
